The test has as its target ProAgio. Put plainly: SPR.

B1: αVβ3 (receptor)
chain 1: FNLDVDSPAEYSGPEGSYFGFAVDFFVPSASSRMFLLVGAPKANTTQPGIVEGGQVLKCDWSSTRRCQPIEFDATGNRDYAKDDPLEFKSHQWFGASVRSKQDKILACAPLYHWRTEMKQEREPVGTCFLQDGTKTVEYAPCRSQDIDADGQGFCQGGFSIDFTKADRVLLGGPGSFYWQGQLISDQVAEIVSKYDPNVYSIKYNNQLATRTAQAIFDDSYLGYSVAVGDFNGDGIDDFVSGVPRAARTLGMVYIYDGKNMSSLYNFTGEQMAAYFGFSVAATDINGDDYADVFIGAPLFMDRGSDGKLQEVGQVSVSLQRASGDFQTTKLNGFEVFARFGSAIAPLGDLDQDGFNDIAIAAPYGGEDKKGIVYIFNGRSTGLNAVPSQILEGQWAARSMPPSFGYSMKGATDIDKNGYPDLIVGAFGVDRAILYRARPVITVNAGLEVYPSILNQDNKTCSLPGTALKVSCFNVRFCLKADGKGVLPRKLNFQVELLLDKLKQKGAIRRALFLYSRSPSHSKNMTISRGGLMQCEELIAYLRDESEFRDKLTPITIFMEYRLDYRTAADTTGLQPILNQFTPANISRQAHILLDCGEDNVCKPKLEVSVDSDQKKIYIGDDNPLTLIVKAQNQGEGAYEAELIVSIPLQADFIGVVRNNEALARLSCAFKTENQTRQVVCDLGNPMKAGTQLLAGLRFSVHQQSEMDTSVKFDLQIQSSNLFDKVSPVVSHKVDLAVLAAVEIRGVSSPDHVFLPIPNWEHKENPETEEDVGPVVQHIYELRNNGPSSFSKAMLHLQWPYKYNNNTLLYILHYDIDGPMNCTSDMEINPLRIKISSLQTTEKNDTVAGQGERDHLITKRDLALSEGDIHTLGCGVAQCLKIVCQVGRLDRGKSAILYVKSLLWTETFMNKENQNHSYSLKSSASFNVIEFPYKNLPIEDITNSTLVTTNVTWGIQPAPMPV
chain 2: GPNICTTRGVSSCQQCLAVSPMCAWCSDEALPLGSPRCDLKENLLKDNCAPESIEFPVSEARVLEDRPLSDKGSGDSSQVTQVSPQRIALRLRPDDSKNFSIQVRQVEDYPVDIYYLMDLSYSMKDDLWSIQNLGTKLATQMRKLTSNLRIGFGAFVDKPVSPYMYISPPEALENPCYDMKTTCLPMFGYKHVLTLTDQVTRFNEEVKKQSVSRNRDAPEGGFDAIMQATVCDEKIGWRNDASHLLVFTTDAKTHIALDGRLAGIVQPNDGQCHVGSDNHYSASTTMDYPSLGLMTEKLSQKNINLIFAVTENVVNLYQNYSELIPGTTVGVLSMDSSNVLQLIVDAYGKIRSKVELEVRDLPEELSLSFNATCLNNEVIPGLKSCMGLKIGDTVSFSIEAKVRGCPQEKEKSFTIKPVGFKDSLIVQVTFDCDCACQAQAEPNSHRCNNGNGTFECGVCRCGPGWLGSQCECSEEDYRPSQQDECSPREGQPVCSQRGECLCGQCVCHSSDFGKITGKYCECDDFSCVRYKGEMCSGHGQCSCGDCLCDSDWTGYYCNCTTRTDTCMSSNGLLCSGRGKCECGSCVCIQPGSYGDTCEKCPTCPDACTFKKECVECKKFDRGALHDENTCNRYCRDEIESVKELKDTGKDAVNCTYKNEDDCVVRFQYYEDSSGKSILYVVEEPECPKGPD
In the case of B1, binding was characterised by a dissociation constant (Kd) of 0.12 nM.
